Results published in patent US20190112340A1 (US Dept. of Health and Human Services, published 2019).

Tests used:
sc8 DS-Cav1 = assay: BLI (Octet), F on Ni-NTA tips, Fab in solution
sc11 DS-Cav1 = sc11 DS-Cav1 (Engineered disulfide 155C-290C. Engineered cysteines 512C/513C. Glycoprotein; one protomer is given.); assay: BLI (Octet), F on Ni-NTA tips, Fab in solution
[1] = molecular target: sc9-10 DS-Cav1 Q98C, Q361C S46G-E92D-L95M-S215P-I217P-I221M-R429K-K465Q (Long (VR26)); assay: BLI (Octet), F on Ni-NTA tips, Fab in solution
[2] = molecular target: sc9-10 DS-Cav1 Q98C, Q361C L95M-I221M-R429K (B18537); assay: BLI (Octet), F on Ni-NTA tips, Fab in solution
bRSV F ATue51908 DS-Cav1 [3] = molecular target: T1, bRSV F ATue51908 DS-Cav1 (bovine RSV, strain ATue51908, UniProt P22167 26-109; P22167 137-513); assay: Fab binding to purified bRSV F trimer (Octet BLI as in Example 1)
bRSV F RB94 DS-Cav1 [4] = molecular target: T2, bRSV F RB94 DS-Cav1 (bovine RSV, strain RB94, UniProt P23728 26-109; P23728 137-513); assay: as above
[5] = molecular target: T3, bRSV F ATue51908 sc9-10 DS-Cav1 A149C Y458C (bovine RSV, strain ATue51908 …); assay: as above
[6] = molecular target: T4, bRSV F 391-2 sc9 DS-Cav1 Q98C Q361C (bovine RSV, strain 391-2, UniProt P22167 26-513); assay: as above
[7] = molecular target: T5, bRSV F strain 391-2 sc9-10, DS-Cav1, Q98C-Q361C (bovine RSV, strain 391-2); assay: as above
bRSV F 391-2 DS-Cav1 [8] = molecular target: T6, bRSV F 391-2 DS-Cav1 (bovine RSV, strain 391-2, UniProt P22167 26-574); assay: as above
bRSV F ATue51908 DS-Cav1 [9] = molecular target: T1, bRSV F ATue51908 DS-Cav1; assay: D25 binding to stressed pre-F trimer as a fraction of the untreated protein (physical stability)
bRSV F RB94 DS-Cav1 [10] = molecular target: T2, bRSV F RB94 DS-Cav1; assay: as above
[11] = molecular target: T3, bRSV F ATue51908 sc9-10 DS-Cav1 A149C …; assay: as above
[12] = molecular target: T4, bRSV F 391-2 sc9 DS-Cav1 Q98C Q361C; assay: as above
[13] = molecular target: T5, bRSV F strain 391-2 sc9-10, DS-Cav1, …; assay: as above
bRSV F 391-2 DS-Cav1 [14] = molecular target: T6, bRSV F 391-2 DS-Cav1; assay: as above
sc9-19 DS-Cav1 [15] = molecular target: T7, sc9-19 DS-Cav1 (Engineered disulfide 155C-290C. Glycoprotein; it assembles as a trimer and one protomer is given.); assay: BLI (Octet), D25 Fab binding after/before stress
sc9-24 DS-Cav1 [16] = assay: BLI (Octet), D25 Fab binding after/before stress
RSV F sc9-10 DS-Cav1 [17] = molecular target: T8, RSV F sc9-10 DS-Cav1 (human RSV subtype A (strain A2)); assay: BLI (Octet), D25 Fab binding after/before stress
sc9-19 DS-Cav1 [18] = molecular target: T7, sc9-19 DS-Cav1; assay: BLI (Octet), F on Ni-NTA tips, Fab in solution
sc9-24 DS-Cav1 [19] = assay: BLI (Octet), F on Ni-NTA tips, Fab in solution
RSV F sc9-9 DS-Cav1 = RSV F sc9-9 DS-Cav1 (human RSV subtype A (strain A2), UniProt P03420 26-96; P03420 145-513); assay: BLI (Octet), F on Ni-NTA tips, Fab in solution
RSV F sc9-10 DS-Cav1 [20] = molecular target: T8, RSV F sc9-10 DS-Cav1; assay: BLI (Octet), F on Ni-NTA tips, Fab in solution
sc9 DS-Cav1-105Q = sc9 DS-Cav1-105Q (Engineered disulfide 155C-290C. Glycoprotein; it assembles as a trimer and one protomer is given.); assay: BLI (Octet), F on Ni-NTA tips, Fab in solution
sc9-10 Cav1only 98-362 = assay: ELISA after 1 week at 4 °C
sc9-10 Cav1only 369-455 = assay: ELISA after 1 week at 4 °C
sc9-10 Cav1only 99-361 = assay: ELISA after 1 week at 4 °C
sc9-10 Cav1only 146-458 = assay: ELISA after 1 week at 4 °C
[21] = molecular target: sc9-10 N183GC N428C Long CAV1only; assay: ELISA after 1 week at 4 °C
sc9-10 Cav1only 100-361 = assay: ELISA after 1 week at 4 °C
sc9-10 Cav1only 100-362 = assay: ELISA after 1 week at 4 °C
[22] = molecular target: sc9-10 A149C Y458C Long CAV1only; assay: ELISA after 1 week at 4 °C
sc9-10 Cav1only 98-361 = assay: ELISA after 1 week at 4 °C
RSVF Cav1only = assay: ELISA after 1 week at 4 °C
sc9-10 Cav1only = assay: ELISA after 1 week at 4 °C
sc9-10 Cav1only 99-362 = assay: ELISA after 1 week at 4 °C

B1: D25 Fab (Fab, V domains shown)
VH: QVQLVQSGAEVKKPGSSVMVSCQASGGPLRNYIINWLRQAPGQGPEWMGGIIPVLGTVHYAPKFQGRVTITADESTDTAYIHLISLRSEDTAMYYCATETALVVSTTYLPHYFDNWGQGTLVTVSS
VL: DIQMTQSPSSLSAAVGDRVTITCQASQDIVNYLNWYQQKPGKAPKLLIYVASNLETGVPSRFSGSGSGTDFSLTISSLQPEDVATYYCQQYDNLPLTFGGGTKVEIKR
Kd (sc8 DS-Cav1): 7.4 nM | Kd (sc11 DS-Cav1): 0.7 nM | Kd [1]: 0.1 nM | Kd [2]: 0.1 nM | Kd (bRSV F ATue51908 DS-Cav1 [3]): 10.8 nM | Kd (bRSV F RB94 DS-Cav1 [4]): 24.3 nM | Kd [5]: 420 nM | Kd [6]: 24.3 nM | Kd [7]: 57.5 nM | Kd (bRSV F 391-2 DS-Cav1 [8]): 0.4 nM | fractional antibody reactivity after 10 cycles of freeze-thaw (bRSV F ATue51908 DS-Cav1 [9]): 1 fraction | fractional antibody reactivity after 50 °C (bRSV F ATue51908 DS-Cav1 [9]): 0.9 fraction | fractional antibody reactivity after 70 °C (bRSV F ATue51908 DS-Cav1 [9]): 0.1 fraction | fractional antibody reactivity after osmolarity 10 mM (bRSV F ATue51908 DS-Cav1 [9]): 0.7 fraction | fractional antibody reactivity after osmolarity 3000 mM (bRSV F ATue51908 DS-Cav1 [9]): 0.4 fraction | fractional antibody reactivity after pH 3.5 (bRSV F ATue51908 DS-Cav1 [9]): 0.9 fraction | fractional antibody reactivity after 10 cycles of freeze-thaw (bRSV F RB94 DS-Cav1 [10]): 1 fraction | fractional antibody reactivity after 50 °C (bRSV F RB94 DS-Cav1 [10]): 0.6 fraction | fractional antibody reactivity after 70 °C (bRSV F RB94 DS-Cav1 [10]): 0.1 fraction | fractional antibody reactivity after osmolarity 10 mM (bRSV F RB94 DS-Cav1 [10]): 0.8 fraction | fractional antibody reactivity after osmolarity 3000 mM (bRSV F RB94 DS-Cav1 [10]): 0.5 fraction | fractional antibody reactivity after pH 3.5 (bRSV F RB94 DS-Cav1 [10]): 1.2 fraction | fractional antibody reactivity after pH 10.0 (bRSV F RB94 DS-Cav1 [10]): 1.3 fraction | fractional antibody reactivity after 10 cycles of freeze-thaw [11]: 1 fraction | fractional antibody reactivity after 50 °C [11]: 0.9 fraction | fractional antibody reactivity after 70 °C [11]: 0.9 fraction | fractional antibody reactivity after osmolarity 10 mM [11]: 0.7 fraction | fractional antibody reactivity after osmolarity 3000 mM [11]: 0.8 fraction | fractional antibody reactivity after pH 3.5 [11]: 1 fraction | fractional antibody reactivity after pH 10.0 [11]: 0.9 fraction | fractional antibody reactivity after 10 cycles of freeze-thaw [12]: 1 fraction | fractional antibody reactivity after 50 °C [12]: 0.9 fraction | fractional antibody reactivity after 70 °C [12]: 0.8 fraction | fractional antibody reactivity after osmolarity 10 mM [12]: 1 fraction | fractional antibody reactivity after osmolarity 3000 mM [12]: 0.9 fraction | fractional antibody reactivity after pH 3.5 [12]: 1.2 fraction | fractional antibody reactivity after pH 10.0 [12]: 1 fraction | fractional antibody reactivity after 10 cycles of freeze-thaw [13]: 1 fraction | fractional antibody reactivity after 50 °C [13]: 1 fraction | fractional antibody reactivity after 70 °C [13]: 1 fraction | fractional antibody reactivity after osmolarity 10 mM [13]: 0.8 fraction | fractional antibody reactivity after osmolarity 3000 mM [13]: 0.8 fraction | fractional antibody reactivity after pH 3.5 [13]: 0.9 fraction | fractional antibody reactivity after pH 10.0 [13]: 0.9 fraction | fractional antibody reactivity after 10 cycles of freeze-thaw (bRSV F 391-2 DS-Cav1 [14]): 1 fraction | fractional antibody reactivity after 50 °C (bRSV F 391-2 DS-Cav1 [14]): 0.7 fraction | fractional antibody reactivity after 70 °C (bRSV F 391-2 DS-Cav1 [14]): 0.1 fraction | fractional antibody reactivity after osmolarity 10 mM (bRSV F 391-2 DS-Cav1 [14]): 0.9 fraction | fractional antibody reactivity after osmolarity 3000 mM (bRSV F 391-2 DS-Cav1 [14]): 0.6 fraction | fractional antibody reactivity after pH 3.5 (bRSV F 391-2 DS-Cav1 [14]): 0.9 fraction | fractional antibody reactivity after pH 10.0 (bRSV F 391-2 DS-Cav1 [14]): 1.2 fraction | fractional D25 reactivity, 50 °C (sc9-19 DS-Cav1 [15]): 0.9 | fractional D25 reactivity, 70 °C (sc9-19 DS-Cav1 [15]): 0.9 | fractional D25 reactivity, freeze-thaw (sc9-19 DS-Cav1 [15]): 0.04 | fractional D25 reactivity, osmolality 10 mM (sc9-19 DS-Cav1 [15]): 0.6 | fractional D25 reactivity, osmolality 3000 mM (sc9-19 DS-Cav1 [15]): 0.5 | fractional D25 reactivity, pH 3.5 (sc9-19 DS-Cav1 [15]): 0.7 | fractional D25 reactivity, pH 10.0 (sc9-19 DS-Cav1 [15]): 0.8 | fractional D25 reactivity, 50 °C (sc9-24 DS-Cav1 [16]): 0.9 | fractional D25 reactivity, 70 °C (sc9-24 DS-Cav1 [16]): 0.9 | fractional D25 reactivity, freeze-thaw (sc9-24 DS-Cav1 [16]): 0 | fractional D25 reactivity, osmolality 10 mM (sc9-24 DS-Cav1 [16]): 0.5 | fractional D25 reactivity, osmolality 3000 mM (sc9-24 DS-Cav1 [16]): 0.5 | fractional D25 reactivity, pH 3.5 (sc9-24 DS-Cav1 [16]): 0.7 | fractional D25 reactivity, pH 10.0 (sc9-24 DS-Cav1 [16]): 0.7 | fractional D25 reactivity, 50 °C (RSV F sc9-10 DS-Cav1 [17]): 0.9 | fractional D25 reactivity, 70 °C (RSV F sc9-10 DS-Cav1 [17]): 0.9 | fractional D25 reactivity, freeze-thaw (RSV F sc9-10 DS-Cav1 [17]): 0.2 | fractional D25 reactivity, osmolality 10 mM (RSV F sc9-10 DS-Cav1 [17]): 1.4 | fractional D25 reactivity, osmolality 3000 mM (RSV F sc9-10 DS-Cav1 [17]): 0.7 | fractional D25 reactivity, pH 3.5 (RSV F sc9-10 DS-Cav1 [17]): 1.5 | fractional D25 reactivity, pH 10.0 (RSV F sc9-10 DS-Cav1 [17]): 0.7 | Kd (sc9-19 DS-Cav1 [18]): 0.8 nM | Kd (sc9-24 DS-Cav1 [19]): 0.8 nM | Kd (RSV F sc9-9 DS-Cav1): 0.2 nM | Kd (RSV F sc9-10 DS-Cav1 [20]): 0.8 nM | Kd (sc9 DS-Cav1-105Q): 0.7 nM

B2: D25 antibody (antibody, V domains shown)
VH: B1 VH
VL: B1 VL
ELISA signal (antigenicity) (sc9-10 Cav1only 98-362): 0.957 | ELISA signal (antigenicity) (sc9-10 Cav1only 369-455): 2.94 | ELISA signal (antigenicity) (sc9-10 Cav1only 99-361): 2.89 | ELISA signal (antigenicity) (sc9-10 Cav1only 146-458): 2.34 | ELISA signal (antigenicity) [21]: 0.502 | ELISA signal (antigenicity) (sc9-10 Cav1only 100-361): 0.92 | ELISA signal (antigenicity) (sc9-10 Cav1only 100-362): 0.416 | ELISA signal (antigenicity) [22]: 2.88 | ELISA signal (antigenicity) (sc9-10 Cav1only 98-361): 1.84 | ELISA signal (antigenicity) (RSVF Cav1only): 3.33 | ELISA signal (antigenicity) (sc9-10 Cav1only): 3.6 | ELISA signal (antigenicity) (sc9-10 Cav1only 99-362): 1.39
